Laboratory results: publication PMC3469469
Read-outs that look alike come from different tables or passages of the source.

Experiments:
C3d C3d (Homo sapiens) [1] = biological target: C3d C3d (Homo sapiens) (UniProt P01024); conditions: cited from earlier work
complement C3b (human) = complement C3b (human) (UniProt P01024)
C3d C3d (Homo sapiens) [2] = biological target: C3d C3d (Homo sapiens) (UniProt P01024); conditions: cited from earlier work; remark: listed apart in the source

Sequence of C3d C3d (Homo sapiens) (P01024 1002-1303): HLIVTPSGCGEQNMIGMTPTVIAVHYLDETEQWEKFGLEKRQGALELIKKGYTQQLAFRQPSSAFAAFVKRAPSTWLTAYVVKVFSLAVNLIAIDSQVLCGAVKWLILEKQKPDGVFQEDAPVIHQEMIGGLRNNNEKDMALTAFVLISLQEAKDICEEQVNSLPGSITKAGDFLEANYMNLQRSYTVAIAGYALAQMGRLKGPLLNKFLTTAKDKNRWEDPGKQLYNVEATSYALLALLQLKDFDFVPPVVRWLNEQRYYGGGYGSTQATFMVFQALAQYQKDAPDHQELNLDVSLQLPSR
Sequence of Efb-C (domain or fragment) (A6QG59 101-165 limits assumed): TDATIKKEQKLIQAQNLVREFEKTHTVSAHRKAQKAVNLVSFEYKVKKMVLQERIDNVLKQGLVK
Sequence of Efb Efb-C (P68799 101-165): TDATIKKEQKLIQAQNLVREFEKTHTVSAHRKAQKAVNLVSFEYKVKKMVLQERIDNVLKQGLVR

| Substance | C3b left on serum-opsonized S. aureus after plasmin with 2 µM fragment, flow cytometry (amount without plasmin set to 100%) (complement C3b (human)) [%] | also measured |
| --- | --- | --- |
| Efb Efb-C (from UniProt P68799) | – | Kd (C3d C3d (Homo sapiens) [1]): 0.0008 µM |
| Efb-C (domain or fragment) | 38 | – |
| Sbi 3–4 (domain or fragment) | 50 | – |
| Sbi domains 3-4 (from UniProt A7X659) | – | Kd (C3d C3d (Homo sapiens) [2]): 1.4 µM |
